Laboratory results reported in US20260007767A1 (ACADEMIA SINICA, published 2026).

Biological target: T1, endogenous FLT3 on the plasma membranes of THP-1 or NOMO-1 cells (UniProt P36888 27-993, limits assumed)
T1 construct: whole, on cells
T1 sequence (looked up): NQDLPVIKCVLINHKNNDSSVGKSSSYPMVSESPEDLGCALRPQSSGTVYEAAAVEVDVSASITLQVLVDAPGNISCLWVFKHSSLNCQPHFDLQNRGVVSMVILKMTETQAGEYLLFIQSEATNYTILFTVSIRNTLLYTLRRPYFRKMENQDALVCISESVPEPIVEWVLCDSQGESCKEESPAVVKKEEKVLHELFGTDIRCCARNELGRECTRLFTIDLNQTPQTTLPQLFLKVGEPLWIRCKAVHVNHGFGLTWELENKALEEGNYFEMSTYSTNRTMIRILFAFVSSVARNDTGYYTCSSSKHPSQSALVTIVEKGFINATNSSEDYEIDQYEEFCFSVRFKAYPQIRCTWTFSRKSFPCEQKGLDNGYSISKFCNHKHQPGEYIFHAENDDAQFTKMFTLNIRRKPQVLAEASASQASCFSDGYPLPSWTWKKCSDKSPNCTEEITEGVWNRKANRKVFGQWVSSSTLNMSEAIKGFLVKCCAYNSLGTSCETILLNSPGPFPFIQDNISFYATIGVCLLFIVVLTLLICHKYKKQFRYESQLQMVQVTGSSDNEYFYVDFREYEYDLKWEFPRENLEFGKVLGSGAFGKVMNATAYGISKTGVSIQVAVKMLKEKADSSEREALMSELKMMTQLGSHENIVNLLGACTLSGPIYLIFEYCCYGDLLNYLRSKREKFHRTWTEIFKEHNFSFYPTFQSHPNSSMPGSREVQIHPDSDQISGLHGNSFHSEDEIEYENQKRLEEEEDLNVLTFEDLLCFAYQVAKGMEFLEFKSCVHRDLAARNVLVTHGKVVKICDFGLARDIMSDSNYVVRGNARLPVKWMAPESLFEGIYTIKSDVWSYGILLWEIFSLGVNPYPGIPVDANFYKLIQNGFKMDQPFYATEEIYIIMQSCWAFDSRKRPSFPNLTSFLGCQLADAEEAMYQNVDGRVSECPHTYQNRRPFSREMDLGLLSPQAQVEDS
Assay: interaction and colocalization in THP-1 or NOMO-1 cells (method not detailed)

binding result: binds
B1: SCUBE1 on the cell surface of leukemia cells (THP-1, NOMO-1 and other lines) (other, human, UniProt Q8IWY4 24-988, looked up)
chain: GGSGLPGSVDVDECSEGTDDCHIDAICQNTPKSYKCLCKPGYKGEGKQCEDIDECENDYYNGGCVHECINIPGNYRCTCFDGFMLAHDGHNCLDVDECQDNNGGCQQICVNAMGSYECQCHSGFFLSDNQHTCIHRSNEGMNCMNKDHGCAHICRETPKGGVACDCRPGFDLAQNQKDCTLTCNYGNGGCQHSCEDTDTGPTCGCHQKYALHSDGRTCIETCAVNNGGCDRTCKDTATGVRCSCPVGFTLQPDGKTCKDINECLVNNGGCDHFCRNTVGSFECGCRKGYKLLTDERTCQDIDECSFERTCDHICINSPGSFQCLCHRGYILYGTTHCGDVDECSMSNGSCDQGCVNTKGSYECVCPPGRRLHWNGKDCVETGKCLSRAKTSPRAQLSCSKAGGVESCFLSCPAHTLFVPDSENSYVLSCGVPGPQGKALQKRNGTSSGLGPSCSDAPTTPIKQKARFKIRDAKCHLRPHSQARAKETARQPLLDHCHVTFVTLKCDSSKKRRRGRKSPSKEVSHITAEFEIETKMEEASDTCEADCLRKRAEQSLQAAIKTLRKSIGRQQFYVQVSGTEYEVAQRPAKALEGQGACGAGQVLQDSKCVACGPGTHFGGELGQCVSCMPGTYQDMEGQLSCTPCPSSDGLGLPGARNVSECGGQCSPGFFSADGFKPCQACPVGTYQPEPGRTGCFPCGGGLLTKHEGTTSFQDCEAKVHCSPGHHYNTTTHRCIRCPVGTYQPEFGQNHCITCPGNTSTDFDGSTNVTHCKNQHCGGELGDYTGYIESPNYPGDYPANAECVWHIAPPPKRRILIVVPEIFLPIEDECGDVLVMRKSASPTSITTYETCQTYERPIAFTSRSRKLWIQFKSNEGNSGKGFQVPYVTYDEDYQQLIEDIVRDGRLYASENHQEILKDKKLIKALFDVLAHPQNYFKYTAQESKEMFPRSFIKLLRSKVSRFLRPYK
notes: whole, on cells; Endogenous protein; in western blots it was in cell lysate; also called surface SCUBE1; membrane SCUBE1
